Results as given in paper PMC6351632.

Target: Fasciola hepatica Sigma class glutathione transferase 1 (Fasciola hepatica)
Assay: crystal structure; FhGST-S1 with glutathione (holo/CGL and GSSG complexes), microbatch, 0.15 M KBr, 20% PEG 3350; space group P212121, two subunits forming a dimer related by a molecular dyad

stoichiometry N: 2
Substance: Fasciola hepatica Sigma class glutathione transferase 1 (enzyme)
